We go through 1 molecule from publication PMC3839849 (Journal of molecular biology, 2013).

For this experiment, the target named is CaV1.2 IQ domain TripleA mutant (CaV1.2 F1618A, F1619A, Y1622A) (human). The experiment can be described thus: ITC. On the technique in general: Isothermal titration calorimetry measures the heat released or taken up as one component is titrated into another.

B1: CaBP1 C-terminal lobe (domain or fragment)
chain: IGVKELRDAFREFDTNGDGEISTSELREAMRKLLGHQVGHRDIEEIIRDVDLNGDGRVDFEEFVRMMSR
In general, Kd refers to the constant that tells how readily two partners part at equilibrium. Read a high Kd as weaker binding. As usually defined, the stoichiometry N is the number of molecules, sites or subunits per partner or assembly. In the case of B1, the Kd was determined as 221 nM, the dH was -1.45 ± 0.14 kcal/mol and the “stoichiometry N” value stood at 0.93 ± 0.01.
